Biological target: Protein A (ProA)-tagged INTAC (human) (UniProt Q8N201)
Experiment: pull-down; in vitro; ProA-tagged INTAC incubated with the indicated purified subcomplexes and immobilised onto IgG resin, washed, SDS-PAGE and Coomassie blue staining; some lanes with DSIF, NELF, a DNA-RNA scaffold or a PP2A inhibitor added

Substance “human RNA polymerase II overexpressed in Expi293F cells (from UniProt P24928 1-1970; P30876 1-1174; P19387 1-275; P52435 1-117) (complex)” has a stoichiometry N of 1.

Source: article PMC10501182
